Results published in PMC12102759 (2025).

B1: CBL peptide 538-553 (E3 ubiquitin-protein ligase CBL), 16-mer library wild type / YES SH3 (YES1 SH3 domain, residues 90-152) (parent complex)
chain 1: TLRDLPPPPPPDRPYS
chain 2: not shown

Variants of: B1
Assay: proteomic peptide phage display deep mutational scan (ProP-PD DMS): M13 P8 16-mer library selected against immobilised GST-tagged bait for four days (rounds), NGS of the eluted pools per day and pseudo-replica; bait immobilised on MaxiSorp plates (10 µg), library pre-cleared on GST, 2 h binding at 4 °C, five washes; one round per day, days 1-4; value from days 2 and 3
chain 1 P14G was tested, and the screen value was 0.000593 average fractional NGS count over selection days 2 and 3 (reads of this peptide / all reads for the bait, averaged over ….
With chain 1 P14E the screen value was 0.000212 average fractional NGS count over selection days 2 and 3 (reads of this peptide / all reads for the bait, averaged over ….
chain 1 P14W was tested, and the screen value was 0.00023 average fractional NGS count over selection days 2 and 3 (reads of this peptide / all reads for the bait, averaged over ….
chain 1 D12K was tested, and the screen value was 0.00012 average fractional NGS count over selection days 2 and 3 (reads of this peptide / all reads for the bait, averaged over ….
In the case of chain 1 D12M, the screen value is reported as 0.00124 average fractional NGS count over selection days 2 and 3 (reads of this peptide / all reads for the bait, averaged over ….
chain 1 D12P was tested, and the screen value was 0.00103 average fractional NGS count over selection days 2 and 3 (reads of this peptide / all reads for the bait, averaged over ….
chain 1 D12H was tested, and the screen value was 0.00265 average fractional NGS count over selection days 2 and 3 (reads of this peptide / all reads for the bait, averaged over ….
chain 1 D12L was tested, and the screen value was 0.00406 average fractional NGS count over selection days 2 and 3 (reads of this peptide / all reads for the bait, averaged over ….
For chain 1 L2D, the screen value was 0.000976 average fractional NGS count over selection days 2 and 3 (reads of this peptide / all reads for the bait, averaged over ….
For chain 1 L2N, the screen value was 0.00027 average fractional NGS count over selection days 2 and 3 (reads of this peptide / all reads for the bait, averaged over ….
In the case of chain 1 L2I, the screen value is reported as 0.000452 average fractional NGS count over selection days 2 and 3 (reads of this peptide / all reads for the bait, averaged over ….
In the case of chain 1 L2F, the screen value is reported as 0.00251 average fractional NGS count over selection days 2 and 3 (reads of this peptide / all reads for the bait, averaged over ….
In the case of chain 1 L2P, the screen value is reported as 0.00136 average fractional NGS count over selection days 2 and 3 (reads of this peptide / all reads for the bait, averaged over ….
In the case of chain 1 L2R, the screen value is reported as 0.000311 average fractional NGS count over selection days 2 and 3 (reads of this peptide / all reads for the bait, averaged over ….
chain 1 L2T was tested, and the screen value was 0.00177 average fractional NGS count over selection days 2 and 3 (reads of this peptide / all reads for the bait, averaged over ….
With chain 1 P10Y the screen value was 0.00108 average fractional NGS count over selection days 2 and 3 (reads of this peptide / all reads for the bait, averaged over ….
chain 1 P10Q was tested, and the screen value was 0.000423 average fractional NGS count over selection days 2 and 3 (reads of this peptide / all reads for the bait, averaged over ….
chain 1 P10E was tested, and the screen value was 0.00012 average fractional NGS count over selection days 2 and 3 (reads of this peptide / all reads for the bait, averaged over ….
For chain 1 P10L, the screen value was 0.000964 average fractional NGS count over selection days 2 and 3 (reads of this peptide / all reads for the bait, averaged over ….
In the case of chain 1 P10R, the screen value is reported as 0.000614 average fractional NGS count over selection days 2 and 3 (reads of this peptide / all reads for the bait, averaged over ….
For chain 1 P11Q, the screen value was 0.000805 average fractional NGS count over selection days 2 and 3 (reads of this peptide / all reads for the bait, averaged over ….
chain 1 P11A was tested, and the screen value was 0.000414 average fractional NGS count over selection days 2 and 3 (reads of this peptide / all reads for the bait, averaged over ….
chain 1 P11H was tested, and the screen value was 0.000426 average fractional NGS count over selection days 2 and 3 (reads of this peptide / all reads for the bait, averaged over ….
In the case of chain 1 P11F, the screen value is reported as 0.00176 average fractional NGS count over selection days 2 and 3 (reads of this peptide / all reads for the bait, averaged over ….
With chain 1 P11W the screen value was 0.000174 average fractional NGS count over selection days 2 and 3 (reads of this peptide / all reads for the bait, averaged over ….
For chain 1 P11V, the screen value was 0.000274 average fractional NGS count over selection days 2 and 3 (reads of this peptide / all reads for the bait, averaged over ….
In the case of chain 1 P11S, the screen value is reported as 4.62e-05 average fractional NGS count over selection days 2 and 3 (reads of this peptide / all reads for the bait, averaged over ….
In the case of chain 1 R13E, the screen value is reported as 0.000127 average fractional NGS count over selection days 2 and 3 (reads of this peptide / all reads for the bait, averaged over ….
In the case of chain 1 R13V, the screen value is reported as 0.000492 average fractional NGS count over selection days 2 and 3 (reads of this peptide / all reads for the bait, averaged over ….
chain 1 R13W was tested, and the screen value was 0.00314 average fractional NGS count over selection days 2 and 3 (reads of this peptide / all reads for the bait, averaged over ….
For chain 1 R13A, the screen value was 0.00128 average fractional NGS count over selection days 2 and 3 (reads of this peptide / all reads for the bait, averaged over ….
chain 1 R3W was tested, and the screen value was 0.00019 average fractional NGS count over selection days 2 and 3 (reads of this peptide / all reads for the bait, averaged over ….
For chain 1 R3A, the screen value was 0.00047 average fractional NGS count over selection days 2 and 3 (reads of this peptide / all reads for the bait, averaged over ….
chain 1 R3G was tested, and the screen value was 0.00132 average fractional NGS count over selection days 2 and 3 (reads of this peptide / all reads for the bait, averaged over ….
chain 1 R3S was tested, and the screen value was 0.000276 average fractional NGS count over selection days 2 and 3 (reads of this peptide / all reads for the bait, averaged over ….
chain 1 R3N was tested, and the screen value was 0.000239 average fractional NGS count over selection days 2 and 3 (reads of this peptide / all reads for the bait, averaged over ….
With chain 1 R3P the screen value was 8.03e-05 average fractional NGS count over selection days 2 and 3 (reads of this peptide / all reads for the bait, averaged over ….
chain 1 R3D was tested, and the screen value was 8.49e-05 average fractional NGS count over selection days 2 and 3 (reads of this peptide / all reads for the bait, averaged over ….
With chain 1 R3M the screen value was 0.000204 average fractional NGS count over selection days 2 and 3 (reads of this peptide / all reads for the bait, averaged over ….
In the case of chain 1 R3V, the screen value is reported as 0.000502 average fractional NGS count over selection days 2 and 3 (reads of this peptide / all reads for the bait, averaged over ….
chain 1 R3L was tested, and the screen value was 7.89e-05 average fractional NGS count over selection days 2 and 3 (reads of this peptide / all reads for the bait, averaged over ….
chain 1 P6H was tested, and the screen value was 0.000126 average fractional NGS count over selection days 2 and 3 (reads of this peptide / all reads for the bait, averaged over ….
For chain 1 P6S, the screen value was 0.000101 average fractional NGS count over selection days 2 and 3 (reads of this peptide / all reads for the bait, averaged over ….
chain 1 P8V was tested, and the screen value was 0.0024 average fractional NGS count over selection days 2 and 3 (reads of this peptide / all reads for the bait, averaged over ….
With chain 1 P8E the screen value was 0.0001 average fractional NGS count over selection days 2 and 3 (reads of this peptide / all reads for the bait, averaged over ….
chain 1 P8F was tested, and the screen value was 5.53e-05 average fractional NGS count over selection days 2 and 3 (reads of this peptide / all reads for the bait, averaged over ….
For chain 1 P8M, the screen value was 0.000558 average fractional NGS count over selection days 2 and 3 (reads of this peptide / all reads for the bait, averaged over ….
With chain 1 P8Y the screen value was 0.00011 average fractional NGS count over selection days 2 and 3 (reads of this peptide / all reads for the bait, averaged over ….
With chain 1 P9N the screen value was 0.000239 average fractional NGS count over selection days 2 and 3 (reads of this peptide / all reads for the bait, averaged over ….
chain 1 P9V was tested, and the screen value was 0.000276 average fractional NGS count over selection days 2 and 3 (reads of this peptide / all reads for the bait, averaged over ….
In the case of chain 1 P9Q, the screen value is reported as 0.000144 average fractional NGS count over selection days 2 and 3 (reads of this peptide / all reads for the bait, averaged over ….
In the case of chain 1 P9S, the screen value is reported as 0.000162 average fractional NGS count over selection days 2 and 3 (reads of this peptide / all reads for the bait, averaged over ….
For chain 1 S16Y, the screen value was 0.000405 average fractional NGS count over selection days 2 and 3 (reads of this peptide / all reads for the bait, averaged over ….
For chain 1 S16K, the screen value was 0.00025 average fractional NGS count over selection days 2 and 3 (reads of this peptide / all reads for the bait, averaged over ….
In the case of chain 1 S16M, the screen value is reported as 0.00227 average fractional NGS count over selection days 2 and 3 (reads of this peptide / all reads for the bait, averaged over ….
With chain 1 S16D the screen value was 0.00258 average fractional NGS count over selection days 2 and 3 (reads of this peptide / all reads for the bait, averaged over ….
In the case of chain 1 S16I, the screen value is reported as 0.00716 average fractional NGS count over selection days 2 and 3 (reads of this peptide / all reads for the bait, averaged over ….
With chain 1 P7N the screen value was 0.000153 average fractional NGS count over selection days 2 and 3 (reads of this peptide / all reads for the bait, averaged over ….
chain 1 P7V was tested, and the screen value was 0.00339 average fractional NGS count over selection days 2 and 3 (reads of this peptide / all reads for the bait, averaged over ….
In the case of chain 1 P7I, the screen value is reported as 0.00214 average fractional NGS count over selection days 2 and 3 (reads of this peptide / all reads for the bait, averaged over ….
With chain 1 P7K the screen value was 0.000378 average fractional NGS count over selection days 2 and 3 (reads of this peptide / all reads for the bait, averaged over ….
For chain 1 P7L, the screen value was 0.000549 average fractional NGS count over selection days 2 and 3 (reads of this peptide / all reads for the bait, averaged over ….
For chain 1 P7H, the screen value was 7.35e-05 average fractional NGS count over selection days 2 and 3 (reads of this peptide / all reads for the bait, averaged over ….
chain 1 D4I was tested, and the screen value was 0.00256 average fractional NGS count over selection days 2 and 3 (reads of this peptide / all reads for the bait, averaged over ….
With chain 1 D4A the screen value was 0.000274 average fractional NGS count over selection days 2 and 3 (reads of this peptide / all reads for the bait, averaged over ….
chain 1 D4M was tested, and the screen value was 0.0013 average fractional NGS count over selection days 2 and 3 (reads of this peptide / all reads for the bait, averaged over ….
With chain 1 D4K the screen value was 0.000375 average fractional NGS count over selection days 2 and 3 (reads of this peptide / all reads for the bait, averaged over ….
With chain 1 D4P the screen value was 0.00043 average fractional NGS count over selection days 2 and 3 (reads of this peptide / all reads for the bait, averaged over ….
With chain 1 Y15I the screen value was 0.000521 average fractional NGS count over selection days 2 and 3 (reads of this peptide / all reads for the bait, averaged over ….
chain 1 Y15R was tested, and the screen value was 0.000143 average fractional NGS count over selection days 2 and 3 (reads of this peptide / all reads for the bait, averaged over ….
For chain 1 Y15W, the screen value was 0.000273 average fractional NGS count over selection days 2 and 3 (reads of this peptide / all reads for the bait, averaged over ….
chain 1 Y15L was tested, and the screen value was 0.00132 average fractional NGS count over selection days 2 and 3 (reads of this peptide / all reads for the bait, averaged over ….
With chain 1 Y15V the screen value was 0.00865 average fractional NGS count over selection days 2 and 3 (reads of this peptide / all reads for the bait, averaged over ….
In the case of chain 1 Y15F, the screen value is reported as 0.00101 average fractional NGS count over selection days 2 and 3 (reads of this peptide / all reads for the bait, averaged over ….
chain 1 L5F was tested, and the screen value was 6.9e-05 average fractional NGS count over selection days 2 and 3 (reads of this peptide / all reads for the bait, averaged over ….
